Measured values reported in the nanobody polyreactivity screen of Harvey et al. (2022).

Assay: yeast display, Sf9 membrane polyspecificity reagent, FACS + sequencing; frameworks hold sequencing errors
Summary of the method: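 A nanobody's polyreactivity label depends on the gate it was sorted from. Yeast display cells were stained with 10% biotinylated, detergent-solubilized Sf9 membrane reagent for 1 hour at 4 °C, enriched on streptavidin microbeads and sorted by FACS. The low and high (top ~1%) gates were set on anti-HA fluorescence for expression and streptavidin fluorescence for reagent binding.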

Row | Sequence | polyreactivity (PSR sort gate)
1 | QVQLVESGGGLVQAGGSLRLSSAASGRIFRYYAMGWYSQAPGKERELVAAISWSGGNSYYADSVKGRFTISRDNAKNTVYLQMNSLKTEDTAVYYCNAYYLPSRYDYWGQGTQVTVSS | high polyreactivity
2 | QVQLVESGGGLVQAGGSLRLSSAASGRIFSDYAMGWYRQAPGKERELVATITSGDSTNYGDSVKGRFTISRDNAKNTVYLQMNSLKTESTEVYYCNAERFPDYDYWGQGTQVTVSS | low polyreactivity
3 | QVQLVESGGGLVQAGGSLRLSSAASGRIFVYNAMGWYRQAPGKERELVAGISWSGARSHYADSVKGRFTISRDNAKKTVYLLMNSLKPEDTAVYYCAAYPQYRSFQYDYWGQGTQVTVSS | high polyreactivity
4 | QVQLVESGGGLVQAGGSLRLSSAASGRIFYGYAMGWYRQAPGKERELVAGISYRGARTYYADSVKGRFTISRDNAKNTVYLQMNSLKPEDTAVYYCNAVPYYPFAFGALDYWGQGTQVTVSS | high polyreactivity
5 | QVQLVESGGGLVQAGGSLRLSSAASGRIFYHNTMGWYRQAPGKERELVAAIRSGSSTYYADSVKGRFTISRDNAKNTVYLQMNSLKPEDTAVYYCNARPWYSWGVDYDYWGQGTQVTVSS | low polyreactivity
6 | QVQLVESGGGLVQAGGSLRLSSAASGRIFYKYVMGWYRQATGKERELVATITSGGSTYYADSVKGRFTISRDNAKNTVYLQMNSLKPEDTAVFYCAARKYYSRAYDYWGQGTQVTVSS | high polyreactivity
7 | QVQLVESGGGLVQAGGSLRLSSAASGRILYRYAMGWYRQAPGKESELVAAIYRSGGDTYYADSVKGRFTITRDNAKNTVYLQMNSLIPEDTAVYYCAASFEGSGYRYDYWGQGSQVTVSS | low polyreactivity
8 | QVQLVESGGGLVQAGGSLRLSSAASGRNFSRYAMGWYRQAPGKERELVAAINKSGGSTYYADSVKGRFTISRDNAKNTVYLQMNSLKPEDSAFYYCNAVYYWYKGDYWGQGSQVTVSS | high polyreactivity
9 | QVQLVESGGGLVQAGGSLRLSSAASGRTFDAYAMGWNRQAPGKERELVAAISGRGGSTTYADSVKGRFTISRDNAKNTVYLQMNSLKPEDTAVYYCAARYPPRFGVVRGYSRSGYWGQGTQVTVSS | high polyreactivity
10 | QVQLVESGGGLVQAGGSLRLSSAASGRTFEVYAMGWYRQAPGKERELVATITYSGGITYYADSVKGRFTISRDNAKNTVYLQMNSLKPEDTAVYYPIGVGGDYDYWGQGTQVTVSS | low polyreactivity
11 | QVQLVESGGGLVQAGGSLRLSSAASGRTFGFNPMGWYRQAPGKERELVAAISSSSSSTYYADSVKGRFTISRDNAKNTVYLQINSLKPEDTAVYYCAKQEPYPFGGYYEYDYWGQGTQVTVSS | low polyreactivity
12 | QVQLVESGGGLVQAGGSLRLSSAASGRTFHANAMGWYRQAPGKERELVARINWSGTSTYYADSVKGRFTISRDNAKNTVYLQMNSLKPEDTAVYYCAAGWIRLYSSLYDYWGQGTQVTVSS | high polyreactivity
13 | QVQLVESGGGLVQAGGSLRLSSAASGRTFPSYDMGWYRQAPGKERELVAAISSSGGSTYYADSVKGRFTISRDNAKNTVYLQMNSLKPEDTAVYYCAAATPSGYYYWGQGTQVTVSS | high polyreactivity
14 | QVQLVESGGGLVQAGGSLRLSSAASGRTFQYYAMGWYRQAPGKERELVAAIDSSGGSTYYADSVKGRFTISRDNAKNTVYLQMNSLKPEDTAVYYCIAGRYRYYYYGYDYWGQGTQVTVSS | high polyreactivity
15 | QVQLVESGGGLVQAGGSLRLSSAASGRTFRYNAMGWYRQAPGKERELVAAIRRGGSTNYADSVKGRITISRDNAKNTVYLQMNSLKPEDTAFYFCAKGHPNDFGYWGQGTQVTVSS | high polyreactivity
16 | QVQLVESGGGLVQAGGSLRLSSAASGRTFTRYTMGWYRQAPGKERELVAAIRYSGGSTYYADSVKGRFTISRDNAKNTVYLQMNSLKPEDTAVYYCAARSYYYGFLYRYDYWGQGTQVTVSS | low polyreactivity
17 | QVQLVESGGGLVQAGGSLRLSSAASGRTFWRYGMGWYRQAPGKERELVAAITDSGDSTYYADSVKGRFTISRDNAKNTVYLQMNSLKPEDTAVYYCAASDVVFALNGYYPGEDDYWGQGTQVTVSS | low polyreactivity
18 | QVQLVESGGGLVQAGGSLRLSSAASGRTFYSNAMGWYRQAPGKERELVAGISKSGGITYYADSVKGRFTISRDNAKNTVYLQMNRLKPEDTAVYYCAARRRGRFYYWGQGTQVTVSS | high polyreactivity
19 | QVQLVESGGGLVQAGGSLRLSSAASGSIFGDYAMGWYRQSPGKERELVAAISSDGSTNYADSVKGRFTISRDNAKNTVYLQMNSLKPEDTAVYYCAADTGGWYFYSYYYWGQGTQVTVSS | low polyreactivity
20 | QVQLVESGGGLVQAGGSLRLSSAASGSIFRVNAMGWYRQAPGKERELVAAISTSGGNTYYADSVKGRFTISRDNAKNTVYLQMNSLKPEDTAVYYCNAPWSSFNGFTGRYDYWGQGTQVTVSS | low polyreactivity
21 | QVQLVESGGGLVQAGGSLRLSSAASGSIFRYNAMGWYRPAPGKERELVAAITSSGGSTYYADSVKGRFTISRDNAKNTVYLQMNSLKPEDTAVYYCAAVRRRVHYPYDYWGQGTQVTVSS | high polyreactivity
22 | QVQLVESGGGLVQAGGSLRLSSAASGSIFRYNAMGWYRQAPGKERELFAAISYRGGRTYYADSVKGRFTISRDNAKNTVYLQMNSLKPEDTAVYYCNADSIYSARGWLYGYWGQGTQVTVSS | low polyreactivity

Row | Sequence | polyreactivity (PSR sort gate)
23 | QVQLVESGGGLVQAGGSLRLSSAASGSIFSQNAMVWYTQAPGKERELVASISSGDSTTYADSVKGRFTISRDNAKNTVYLQMNSLKPEDTAVYYCNAYRYNALPWRYVGYDYWGQGTQVTVSS | low polyreactivity
24 | QVQLVESGGGLVQAGGSLRLSSAASGSIFYGNSMGWYRQAPGKERELVAAISQSGGSTYYADSVKGRFTISRDNAKNTVYLQMNSLKPEDTAVYYCAAYTPYATWRYDYWGQGTQVTVSS | low polyreactivity
25 | QVQLVESGGGLVQAGGSLRLSSAASGSIFYRYAMGWYRQAPGKERELVAVISRGGSTNYADSVKGRFTISRDNAKNTVYLQMNSLKPEDTAVYYCAAGGYSKGDYWGQGTQVTVSS | high polyreactivity
26 | QVQLVESGGGLVQAGGSLRLSSAASGSILPYYAMGWYRQAPGKESELVATITSRGGSTYYADSVKGRFTISRDNAKNTVYLQMNSLKPEDTAVYYCAKEYRYYRRRYDYCGQGTQVTVSS | high polyreactivity
27 | QVQLVESGGGLVQAGGSLRLSSAASGSILTINAMGWYRLAPGKERELVARITISSGSTYYADSVKGRFTISRDNAKNTVYLQLNSLKPEDTAVYYCAKLRYPYLFWDDSEYWGQGTQVTVSS | low polyreactivity
28 | QVQLVESGGGLVQAGGSLRLSSAASGSNFPTNAMGWYRQAPGKETELVAAITDGGSTNYADSVKGRFTISRDNAKNTVYLQMNSLKPEDTAVYYCAAVGFKTVLPEYDYWGKGTQVTVSS | low polyreactivity
29 | QVQLVESGGGLVQAGGSLRLSSAASGSTFFLYGMRWYSQPPGKERQLVAAITWNGGSTSYADSVKGRFTISRDIAKFTVYLQMNSLKPEDTAVYYWAADYYGYFSTAYEYWGQGTQVTVSS | low polyreactivity
30 | QVQLVESGGGLVQAGGSLRLSSAASGSTFFSYAMGWYRQAPGKERELVAAISWIDDGTYYADSVKGRFTISRDNAKNTVYLQMNSLKPEDTAVYYCAADIGAYRTWDYEYWGQGTQVTVSS | low polyreactivity
31 | QVQLVESGGGLVQAGGSLRLSSAASGSTFGPYAMGWYRQAPGKERELVAAISRRGTSTYYADSVKGRFTISRDNAKNTVYLQMNSLKPEDTAVYYCNAVTSSFFNRDSDYWGQGNQVTVSS | high polyreactivity
32 | QVQLVESGGGLVQAGGSLRLSSAASGSTFPVYALGWYRQAPGKERELVAAITRTGARTYYADSVKGRFTISRDNAKNTVYLQMNSLTPEDTAVYYCAARGAGGILGRYGYWGQGTKVTVSS | high polyreactivity
33 | QVQLVESGGGLVQAGGSLRLSSAASGSTFRRNAMGWYRQAPGKQRELVAAITWRGTSTYYADSVKGRFTISRDNAKNTVYLQMNSLKPEDTAVDYCAAPWVVRRTAYDYWGQGTQVTVSS | high polyreactivity
34 | QVQLVESGGGLVQAGGSLRLSSAASGSTIFLYDMGWYRQAPGKERELVAAITISGGSTYYADSVKGRFTISRDNAKNTVYLQMNSLKPEDTAVYYCAVRTYRFRHWPKYDYWGQGTQVTVSS | high polyreactivity
35 | QVQLVESGGGLVQAGGSLRLSSAASGSTVPRYAMGWDRQAPGKERAFVAVIWSGGSTYYAVSVKGRFTISRDNAKNTVYLQMNSLKPEDTAVYYCAAEYHTLSKYSGYATHDYWGQGTQVTVSS | low polyreactivity
36 | QVQLVESGGGLVQAGGSLRLSSAASGTTFAPNAMGWYRPAPGKERELVAAISSGGDSTNYADSVKGRFTISRDNAKNTVYLQLNSLKPEDTAVYYCAAHYVEREYDYWGQGTQVTVSS | low polyreactivity
37 | QVQLVESGGGLVQAGGSLRLSSAASRSTFTVYAMGWYRQAPGKETELVAAITGGGRTYYADSVKGRFTISRDNAKNTVYLQMNSLKPEDTAVYYCAKKYSWRYARVYSLHFDYWGQGTQVTVSS | high polyreactivity
38 | QVQLVESGGGLVQAGGSLRLSSADSGRTFRYYAMRWYRPAPGKERELVAAITRGGRTNYADSVKGRFTISRDNAKNTVYLQMNSLKPEDTAVYYCAAVLYTPNKYASYYWGQGTQVTVSS | high polyreactivity
39 | QVQLVESGGGLVQAGGSLRLSSAPSGSTFYGYSRGWYRPAPGKERELVAAISSRGGSTKYADSVKGRFTISRDNAKNTVYLQMNSLKPEDTAVYYCAATSRSSRRYYYWGQGTQVTVSS | high polyreactivity
40 | QVQLVESGGGLVQAGGSLRLSSASSGRIFPDNTMGWYRQAPGKERELVAVITYSGGSTYYADSVKGRFTISRDNAKNTVYLQMNSLKPDDTAVYYCAARDYYIWFAEVDYWGQGTQVTVSS | low polyreactivity
41 | QVQLVESGGGLVQAGGSLRLSSASSGSIFTDNGMGCYRHAPGKESELVAAISWRGGTYYADSVKGRFTISRDNAKNTVYLQMNSLKPEDSAVYYSAADVLRISTRLFRGPGFDSWGQGTQVTVSS | low polyreactivity
42 | QVQLVESGGGLVQAGGSLRLSSASSGSIIFLYTMGWYRQAPGKERELVAAIDSVGSTNYADSVKGRFTISRDNAKNTVYLHMNSLKPEDTAVYYCNAYFWVGLYEYDYWGQGTQVTVSS | low polyreactivity
43 | QVQLVESGGGLVQAGGSLRLSSPASGYIISTYVMGWYRQAPGKERDLVAAITRSGGSTYYADSVKGRFTISRDNAKNNVYLQMNSLKPEDTAVYYCNAYLYLYGLSGRYDYWGQGTQVTVSS | high polyreactivity
